Measured values: the RNAGym collection of RNA variant scans (doi:10.1093/molbev/msab373)

B1: Azoarcus group I ribozyme (parent)
chain: GUGCCUUGCGCCGGGAAACCACGCAAGGGAUGGUGUCAAAUUCGGCGAAACCUAAGCGCCCGCCCGGGCGUAUGGCAACGCCGAGCCAAGCUUCGGCGCCUGCGCCGAUGAAGGUGUAGAGACUAGACGGCACCCACCUAAGGCAAACGCUAUGGUGAAGGCAUAGUCCAGGGAGUGGCGAAAGUCACACAAACCGG

Variants of: B1
Assay: reverse-splicing fitness (ratio to wild type); higher = more active; in vitro selection; Mg2+ level not given
Summary of the method: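 An in vitro group I ribozyme library with randomized positions was T7-transcribed and gel-purified. In triplicate, 10 pmol RNA in EPPS pH 7.5 was reacted with 50 pmoles of a 30-nt RNA substrate for 1 h at 37 °C across several added MgCl2 levels (1–48 mM), then stopped with EDTA. Products were reverse transcribed from a substrate-complementary primer, PCR-amplified and sequenced (HiSeq 4000). Fitness is a variant's read proportion after selection over that before, normalised to wild type.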

Variant	reverse-splicing fitness
GUGCCUUGCGCCGGGAAACCACGCAAGGGAUGGUGUCAAAUUCGGCGAAACCUAAGCGCCCGCCCGGGCGUAUGGCAACGCCGAGCCAAGCUUCGGCGCCUGCGCCGAUGCAGGUGUAGGGACUAGACGGCACCCACCUAAGGCAAACGAUAUGGUGAAGGCAUAGUCGAGGGAGUGGCGAAAGUCACACAAACCGG [A111C A120G C150A C169G]	0.0242
GUGCCUUGCGCCGGGAAACCACGCAAGGGAUGGUGUCAAAUUCGGCGAAACCUAAGCGCCCGCCCGGGCGUAUGGCAACGCCGAGCCAAGCUUCGGCGCCUGCGCCGAUGCAGGUGUAGGGACUAGACGGCACCCACCUAAGGCAAACGAUAUGGUGAAGGCAUAGUCUAGGGAGUGGCGAAAGUCACACAAACCGG [A111C A120G C150A C169U]	0.0203
GUGCCUUGCGCCGGGAAACCACGCAAGGGAUGGUGUCAAAUUCGGCGAAACCUAAGCGCCCGCCCGGGCGUAUGGCAACGCCGAGCCAAGCUUCGGCGCCUGCGCCGAUGCAGGUGUAGGGACUAGACGGCACCCACCUAAGGCAAACGAUAUGGUGAAGGCAUAGUCAAGGGAGUGGCGAAAGUCACACAAACCGG [A111C A120G C150A C169A]	0.0171
GUGCCUUGCGCCGGGAAACCACGCAAGGGAUGGUGUCAAAUUCGGCGAAACCUAAGCGCCCGCCCGGGCGUAUGGCAACGCCGAGCCAAGCUUCGGCGCCUGCGCCGAUGCAGGUGUAGGGACUAGACGGCACCCACCUAAGGCUAACGCUAUGGUGAAGGCAUAGUCUAGGGAGGGGCGAAAGUCACACAAACCGG [A111C A120G A145U C169U U176G]	0.00716
GUGCCUUGCGCCGGGAAACCACGCAAGGGAUGGUGUCAAAUUCGGCGAAACCUAAGCGCCCGCCCGGGCGUAUGGCAACGCCGAGCCAAGCUUCGGCGCCUGCGCCGAUGCAGGUGUAGGGACUAGACGGCACCCACCUAAGGCUAACGCUAUGGUGAAGGCAUAGUCUAGGGAGAGGCGAAAGUCACACAAACCGG [A111C A120G A145U C169U U176A]	0.042
GUGCCUUGCGCCGGGAAACCACGCAAGGGAUGGUGUCAAAUUCGGCGAAACCUAAGCGCCCGCCCGGGCGUAUGGCAACGCCGAGCCAAGCUUCGGCGCCUGCGCCGAUGCAGGUGUAGGGACUAGACGGCACCCACCUAAGGCUAACGCUAUGGUGAAGGCAUAGUCUAGGGAGCGGCGAAAGUCACACAAACCGG [A111C A120G A145U C169U U176C]	0.0424
GUGCCUUGCGCCGGGAAACCACGCAAGGGAUGGUGUCAAAUUCGGCGAAACCUAAGCGCCCGCCCGGGCGUAUGGCAACGCCGAGCCAAGCUUCGGCGCCUGCGCCGAUGCAGGUGUAGGGACUAGACGGCACCCACCUAAGGCAAACGAUAUGGUGAAGGCAUAGUCUAGGGAGCGGCGAAAGUCACACAAACCGG [A111C A120G C150A C169U U176C]	0.024
GUGCCUUGCGCCGGGAAACCACGCAAGGGAUGGUGUCAAAUUCGGCGAAACCUAAGCGCCCGCCCGGGCGUAUGGCAACGCCGAGCCAAGCUUCGGCGCCUGCGCCGAUGCAGGUGUAGGGACUAGACGGCACCCACCUAAGGCAAACGAUAUGGUGAAGGCAUAGUCUAGGGAGGGGCGAAAGUCACACAAACCGG [A111C A120G C150A C169U U176G]	0.0056
GUGCCUUGCGCCGGGAAACCACGCAAGGGAUGGUGUCAAAUUCGGCGAAACCUAAGCGCCCGCCCGGGCGUAUGGCAACGCCGAGCCAAGCUUCGGCGCCUGCGCCGAUGCAGGUGUAGGGACUAGACGGCACCCACCUAAGGCAAACGAUAUGGUGAAGGCAUAGUCUAGGGAGAGGCGAAAGUCACACAAACCGG [A111C A120G C150A C169U U176A]	0.0211
GUGCCUUGCGCCGGGAAACCACGCAAGGGAUGGUGUCAAAUUCGGCGAAACCUAAGCGCCCGCCCGGGCGUAUGGCAACGCCGAGCCAAGCUUCGGCGCCUGCGCCGAUGCAGGUGUAGGGACUAGACGGCACCCACCUAAGGCAAACGAUAUGGUGAAGGCAUAGUCGAGGGAGCGGCGAAAGUCACACAAACCGG [A111C A120G C150A C169G U176C]	0.0245
GUGCCUUGCGCCGGGAAACCACGCAAGGGAUGGUGUCAAAUUCGGCGAAACCUAAGCGCCCGCCCGGGCGUAUGGCAACGCCGAGCCAAGCUUCGGCGCCUGCGCCGAUGCAGGUGUAGGGACUAGACGGCACCCACCUAAGGCAAACGAUAUGGUGAAGGCAUAGUCGAGGGAGGGGCGAAAGUCACACAAACCGG [A111C A120G C150A C169G U176G]	0.00531
GUGCCUUGCGCCGGGAAACCACGCAAGGGAUGGUGUCAAAUUCGGCGAAACCUAAGCGCCCGCCCGGGCGUAUGGCAACGCCGAGCCAAGCUUCGGCGCCUGCGCCGAUGCAGGUGUAGGGACUAGACGGCACCCACCUAAGGCAAACGAUAUGGUGAAGGCAUAGUCGAGGGAGAGGCGAAAGUCACACAAACCGG [A111C A120G C150A C169G U176A]	0.0175
GUGCCUUGCGCCGGGAAACCACGCAAGGGAUGGUGUCAAAUUCGGCGAAACCUAAGCGCCCGCCCGGGCGUAUGGCAACGCCGAGCCAAGCUUCGGCGCCUGCGCCGAUGCAGGUGUAGGGACUAGACGGCACCCACCUAAGGCAAACGAUAUGGUGAAGGCAUAGUCCAGGGAGGGGCGAAAGUCACACAAACCGG [A111C A120G C150A U176G]	0.00592
GUGCCUUGCGCCGGGAAACCACGCAAGGGAUGGUGUCAAAUUCGGCGAAACCUAAGCGCCCGCCCGGGCGUAUGGCAACGCCGAGCCAAGCUUCGGCGCCUGCGCCGAUGCAGGUGUAGGGACUAGACGGCACCCACCUAAGGCAAACGAUAUGGUGAAGGCAUAGUCCAGGGAGAGGCGAAAGUCACACAAACCGG [A111C A120G C150A U176A]	0.0175
GUGCCUUGCGCCGGGAAACCACGCAAGGGAUGGUGUCAAAUUCGGCGAAACCUAAGCGCCCGCCCGGGCGUAUGGCAACGCCGAGCCAAGCUUCGGCGCCUGCGCCGAUGCAGGUGUAGGGACUAGACGGCACCCACCUAAGGCAAACGAUAUGGUGAAGGCAUAGUCCAGGGAGCGGCGAAAGUCACACAAACCGG [A111C A120G C150A U176C]	0.0209
